Measurements: the domain aggregation screens of Martell et al. (2025)

Assay: soluble fraction after stress (log2 fold change); higher = more stays soluble; pooled small domains, quantitative proteomics
Conditions: stress: 75 degC
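Further: 20 min heating vs room temperature control held 20 min.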

Sequence	soluble fraction (log2)
HMPNDYRKKLEILAKEKGAEYLHTMLTEVDPKSALQIHTNNIKRTIRALEFYHQTGMKISEHNEAEREK	-0.204
HMPNIHVVFAEEWTDRRLDKVLSEYFDGYSRSFIKKLFDDGLILVNSKAVKPSYKVRAGDMIDISVPDPV	-1.83
HMPNPALESARPAFEAFLSRFSDGEAMRGPAWGLWSLLHRKGNAPTASHAAGRDGMGVLAFLRHWQWG	-0.452
HMPPDLSEAIQKRIEGKTDEALEILRKLYNEYPESTEIITMLGRTLLDAEEYALAAFRLEQALDLGG	-0.699
HMPPDVIENIFKNDANKIIDLYNMAPRGQKETIVEMIKNKRLQGINVDANVLVKLGELTGIDFVN	-0.087
HMPPLVLRGVVMGADGARLAILAQGEAGAALGIGETWKEYTLRSVTDQSATLEHRSGTITLTR	-0.701
HMPPNPELGKKLLKLRKEFKMTQDDVANILGMSRTSFSKYENGIANPPLQVMRKLASIYNVGLEYLI	-1.84
HMPQEMIEILATPNGWLRVRQGPGTNYPEITKVNSGEEFPLLEEKDSWFKIRIEEGQEGWISSQYAQKEE	0.00978
HMPQGFEDLTEREREVLTLIAEGRTNQEIADALVISIKTVNRHRENIMAKLNLHSRVELVRYAIAQGLI	-2.61
HMPQNLQDQLFELILSRYPRRADAVEDLANILHLGKDPVYRRLRGDTFLSPLEISTLALHFRISLDALIV	-2.5
HMPQPEIEIAAVVPYSAGALLSRIHDDGELLAPVEYRGEGVFVHARVPADIEAAMRRGGMLSPAET	0.0386
HMPQQVFKREDLQKWGLTGQADSRKRREKLGQLLGIGYGNGKQLIHRLNMFQVDRATFEQAIKQINQEEDH	-0.539
HMPQTNIYPNPAFDKLFVSNLENETNFKIMDLFGRTIINSKTKGEISISELKSGIYIIEINNFRQKFVK	-2.64
HMPQVALAIDEMKRELASPDIVKTLLATTFKGLSEVNMRQAMLDGMIQGHTIADFFKKDVYAIPFGSGYSL	0.049
HMPRPFPELTTREHDILALIARGWSNGRIADHLSLSGKTVSNYVSNILGKLQVTARAEAAERAREAGMGQ	-0.379
HMPRRSYLDARKKLLGMLNSPDFNSGDQIPAERELSEVLGISRVTVRKIITELIDEGVLERRGNQGTWLVD	-1.01
HMPRSREVHVEPGMVLEDVTTGFVGAVIRTEKSAGIYVIELEDRRGRRRSFPLGGGFWLDGRPIIALPPLP	-1.81
HMPSLAVYPNPVKDILNIATDKPVHSIRIYNVYGSEVLRAADTNRIDVSHLPAGVYMVSADGKVTRIIK	-0.858
HMPSLGGLLALLKRNRKPDAMEALDRLISKEDRPETAEALENIREKVRNMQMREAEGLLLALMEP	-0.509
HMPSLILADEPTGNLDSRNSSEVIALLKNASKRYAQTIIMITHNRSIAQSADRVLQVSDGVLTDMG	0.345
HMPSLNDRPDDVLYLFSYFLQSFSHRQVSLPKILKKALIQHDWWGNIRELHSVALRYYIFGDTLNGAYDSL	-0.99
HMPSLSREREAAILEMIERRPSTAEDVASGLGLAVNEVIKLLDGTALRGSVETFQSGEEIYYTRKR	0.472
HMPSNVKIPDVTGKTVAQARSAIEAAGLKVGKEKDEYSDSAKKDSVIRTNPQAGTQRREGSTVDLIVS	0.175
HMPSPFYIMDEVEAALDDTNLGRLITLFEELRDSSQLIVITHQKKTMEIADALYGVTMRGDGITTVVSQRL	0.151
HMPSQEQSDKNAAMAFLPVIVKNALNGKGLKISDDWKAAVNTALAQYPLVNKFFNADSPEVTELVMGL	-0.0584
HMPSQLPLAFARRHGVLLRGFSNGLAQLTVRPEVSTLSLAETRRHLGVPLALEKVTTERFDQLLREAYEA	-0.9
HMPSYYKELQNYSPENPVVKKRKVHPDVVNAIKYLAEITDGNPMLIKAYAQMILAHVFTTMPLIDKSV	-0.00519
HMPTEAIVLQQIQIRQSPSGNSKSLQQILPGAKIKITSESSVKGWKQVSLDGGQKGWIPTAAIGL	-0.499
HMPTELVYTVPASAEGLRLDHFLVQHVPHMTRALATELTGAGGVRVNGRRAKKGDRLPSGAEVRLER	0.0576
HMPTFAEKLHEVRKARDFTQDQLAKEMNVSRQTISHWENGRAVPDIDTIKHLSQVLDYNFLV	0.0869
